This is an account of results in patent publication US20140155325A1 (Janssen / Centocor, published 2014).

Test [1] deals with recombinant human c-Met Fc chimera (human) (UniProt P08581). Briefly: SPR (ProteOn), c-Met-Fc captured by anti-human Fc.
Test [2] has the same target. Briefly: HGF competition (biotinylated HGF on coated c-Met-Fc).
For test [3] the target is unchanged. Briefly: SPR, serine scan in the context of ECB15. On the technique in general: In SPR one partner is held on a chip, and binding of the other changes the refractive index at the surface.
Test [4] shares this target. Briefly: SPR (ProteOn), protocol of Example 3.

B1: P114AR7P93-G8 (designed binder, not shown: small tags and cut ends)
chain: LPAPKNLVVSRVTEDSARLSWTAPDAAFDSFWIRYFEFLGSGEAIVLTVPGSERSYDLTDLKPGTEYGVTINGVKGGRVSTPLSAIFTT
A word on the Kd: it is the constant that tells how readily two partners part at equilibrium. Broadly, the IC50 is the concentration at which inhibition is half-maximal. Consider B1, for which, in test [1], the Kd was found to be 6.9 nM. In test [2], the IC50 was found to be 1 nM.

B2: A3 K78S (designed binder)
chain: LPAPKNLVVSEVTEDSARLSWDDPWAFYESFLIQYQESEKVGEAIVLTVPGSERSYDLTGLKPGTEYTVSIYGVHNVYKDTNMRGLPLSAIFTTAPAPAPAPAPLPAPKNLVVSRVTEDSARLSWTAPDAAFDSFWIRYFEFLGSGEAIVLTVPGSERSYDLTGLKPGTEYVVNIMGVKGGSISPPLSAIFTT
In general, koff refers to the rate constant with which the complex falls apart. By kon is commonly meant a measure of how fast the partners come together. On to B2, for which, in test [3], the Fold Change of KD against parent turned out to be 0.75 fold, the Kd worked out at 0.3 nM, the koff is 0.00015 s⁻¹ and the kon worked out at 440000 M⁻¹ s⁻¹.

B3: A3 P81S (designed binder)
chain: LPAPKNLVVSEVTEDSARLSWDDPWAFYESFLIQYQESEKVGEAIVLTVPGSERSYDLTGLKPGTEYTVSIYGVHNVYKDTNMRGLPLSAIFTTAPAPAPAPAPLPAPKNLVVSRVTEDSARLSWTAPDAAFDSFWIRYFEFLGSGEAIVLTVPGSERSYDLTGLKPGTEYVVNIMGVKGGKISSPLSAIFTT
For the molecule B3, in test [3], the Fold Change of KD against parent was 4.25 fold, the Kd came out at 1.7 nM, the dissociation rate constant (koff) stood at 0.000536 s⁻¹ and the kon turned out to be 321000 M⁻¹ s⁻¹.

B4: A3 W32S (designed binder)
chain: LPAPKNLVVSEVTEDSARLSWDDPWAFYESFLIQYQESEKVGEAIVLTVPGSERSYDLTGLKPGTEYTVSIYGVHNVYKDTNMRGLPLSAIFTTAPAPAPAPAPLPAPKNLVVSRVTEDSARLSWTAPDAAFDSFSIRYFEFLGSGEAIVLTVPGSERSYDLTGLKPGTEYVVNIMGVKGGKISPPLSAIFTT
As to B4, in test [3], the Fold Change of KD against parent came out at 74.5 fold, the Kd was found to be 29.8 nM, the koff was 0.0086 s⁻¹ and the kon is 289000 M⁻¹ s⁻¹.

B5: A3 G40S (designed binder)
chain: LPAPKNLVVSEVTEDSARLSWDDPWAFYESFLIQYQESEKVGEAIVLTVPGSERSYDLTGLKPGTEYTVSIYGVHNVYKDTNMRGLPLSAIFTTAPAPAPAPAPLPAPKNLVVSRVTEDSARLSWTAPDAAFDSFWIRYFEFLSSGEAIVLTVPGSERSYDLTGLKPGTEYVVNIMGVKGGKISPPLSAIFTT
B5: in test [3], the Fold Change of KD against parent is 4.25 fold, the Kd was 1.7 nM, the koff was determined as 0.00032 s⁻¹ and the kon was 185000 M⁻¹ s⁻¹.

B6: A3 N70S (designed binder)
chain: LPAPKNLVVSEVTEDSARLSWDDPWAFYESFLIQYQESEKVGEAIVLTVPGSERSYDLTGLKPGTEYTVSIYGVHNVYKDTNMRGLPLSAIFTTAPAPAPAPAPLPAPKNLVVSRVTEDSARLSWTAPDAAFDSFWIRYFEFLGSGEAIVLTVPGSERSYDLTGLKPGTEYVVSIMGVKGGKISPPLSAIFTT
Turning to B6, in test [3], the Fold Change of KD against parent came to 14.8 fold, the Kd was 5.9 nM, the koff worked out at 0.00249 s⁻¹ and the kon worked out at 425000 M⁻¹ s⁻¹.

B7: A3 L39S (designed binder)
chain: LPAPKNLVVSEVTEDSARLSWDDPWAFYESFLIQYQESEKVGEAIVLTVPGSERSYDLTGLKPGTEYTVSIYGVHNVYKDTNMRGLPLSAIFTTAPAPAPAPAPLPAPKNLVVSRVTEDSARLSWTAPDAAFDSFWIRYFEFSGSGEAIVLTVPGSERSYDLTGLKPGTEYVVNIMGVKGGKISPPLSAIFTT
With B7, in test [3], the Fold Change of KD against parent was 6.75 fold, the Kd came to 2.7 nM, the koff was determined as 0.00127 s⁻¹ and the kon amounted to 475000 M⁻¹ s⁻¹.

B8: A3 F36S (designed binder)
chain: LPAPKNLVVSEVTEDSARLSWDDPWAFYESFLIQYQESEKVGEAIVLTVPGSERSYDLTGLKPGTEYTVSIYGVHNVYKDTNMRGLPLSAIFTTAPAPAPAPAPLPAPKNLVVSRVTEDSARLSWTAPDAAFDSFWIRYSEFLGSGEAIVLTVPGSERSYDLTGLKPGTEYVVNIMGVKGGKISPPLSAIFTT
Take B8: in test [3], the Fold Change of KD against parent came out at 68 fold, the equilibrium dissociation constant (Kd) amounted to 27.2 nM, the koff came out at 0.00512 s⁻¹ and the kon is 188000 M⁻¹ s⁻¹.

B9: A3 V68S (designed binder)
chain: LPAPKNLVVSEVTEDSARLSWDDPWAFYESFLIQYQESEKVGEAIVLTVPGSERSYDLTGLKPGTEYTVSIYGVHNVYKDTNMRGLPLSAIFTTAPAPAPAPAPLPAPKNLVVSRVTEDSARLSWTAPDAAFDSFWIRYFEFLGSGEAIVLTVPGSERSYDLTGLKPGTEYSVNIMGVKGGKISPPLSAIFTT
Consider B9, for which, in test [3], the Fold Change of KD against parent turned out to be 9 fold, the Kd came to 3.6 nM, the koff was determined as 0.0012 s⁻¹ and the kon was determined as 329000 M⁻¹ s⁻¹.

B10: A3 F38S (designed binder)
chain: LPAPKNLVVSEVTEDSARLSWDDPWAFYESFLIQYQESEKVGEAIVLTVPGSERSYDLTGLKPGTEYTVSIYGVHNVYKDTNMRGLPLSAIFTTAPAPAPAPAPLPAPKNLVVSRVTEDSARLSWTAPDAAFDSFWIRYFESLGSGEAIVLTVPGSERSYDLTGLKPGTEYVVNIMGVKGGKISPPLSAIFTT
For the molecule B10, in test [3], the Fold Change of KD against parent was 1790 fold, the Kd was 717 nM, the off-rate (koff) was 0.0323 s⁻¹ and the kon came to 45100 M⁻¹ s⁻¹.

B11: P114AR5P74-A5 (designed binder, not shown: small tags and cut ends)
chain: LPAPKNLVVSRVTEDSARLSWTAPDAAFDSFWIRYDEVVVGGEAIVLTVPGSERSYDLTGLKPGTEYYVNILGVKGGSISVPLSAIFTT
B11: the Kd in test [1] turned out to be 10.1 nM. Moreover, the IC50 in test [2] is 5.2 nM.

B12: P114AR7P95-G7 (designed binder, not shown: small tags and cut ends)
chain: LPAPKNLVVSRVTEDSARLSWTAPDAAFDSFWIRYFELLSTGEAIVLTVPGSERSYDLTGLKPGTEYVVNIMGVKGGSISPPLSAIFTT
On to B12, for which the Kd in test [1] was 20 nM.

B13: P114AR7P95-F10 (designed binder, not shown: small tags and cut ends)
chain: LPAPKNLVVSRVTEDSARLSWTAPDAAFDSFWIRYFEFTTAGEAIVLTVPGSERSYDLTGLKPGTEYVVNIMGVKGGSISPPLSAIFTT
Turning to B13, in test [1], the Kd came to 4.2 nM. For the same molecule, the IC50 in test [2] was 1.4 nM.

B14: P114AR7P92-H5 (designed binder, not shown: small tags and cut ends)
chain: LPAPKNLVVSRVTEDSARLSWTAPDAAFDSFWIRYLEFLLGGEAIVLTVPGSERSYDLTGLKPGTEYVVQIMGVKGGTVSPPLSAIFTT
For the molecule B14, in test [1], the Kd was found to be 11.6 nM.

B15: P114AR7P92-F6 (designed binder, not shown: small tags and cut ends)
chain: LPAPKNLVVSRVTEDSARLSWTAPDAAFDSFWIRYFEFLGSGEAIVLTVPGSERSYDLTGLKPGTEYVVNILGVKGGGLSVPLSAIFTT
With B15, the Kd in test [1] was determined as 3.1 nM. The IC50 in test [2] was found to be 2.2 nM.

B16: P114AR7P95-D4 (designed binder, not shown: small tags and cut ends)
chain: LPAPKNLVVSRVTEDSARLSWTAPDAAFDSFWIRYFEFLGSGEAIVLTVPGSERSYDLTGLKPGTEYVVQILGVKGGYISIPLSAIFTT
As for B16, the Kd in test [1] is 0.4 nM.

B17: P114AR5P75-E9 (designed binder, not shown: small tags and cut ends)
chain: LPAPKNLVVSRVTEDSARLSWTAPDAAFDSFFIRYDEFLRSGEAIVLTVPGSERSYDLTGLKPGTEYWVTILGVKGGLVSTPLSAIFTT
With B17, the Kd in test [1] turned out to be 45.8 nM. For the same molecule, the IC50 in test [2] was found to be 51.9 nM.

B18: P114AR7P95-H8 (designed binder, not shown: small tags and cut ends)
chain: LPAPKNLVVSRVTEDSARLSWTAPDAAFDSFWIRYFEFVSKGEAIVLTVPGSERSYDLTGLKPGTEYVVNIMGVKGGSISPPLSAIFTT
In the case of B18, the Kd in test [1] was 3.7 nM.

B19: P114AR7P94-A3 (designed binder, not shown: small tags and cut ends)
chain: LPAPKNLVVSRVTEDSARLSWTAPDAAFDSFWIRYFEFLGSGEAIVLTVPGSERSYDLTGLKPGTEYVVNIMGVKGGKISPPLSAIFTT
Turning to B19, the Kd in test [1] is 0.4 nM. Moreover, the IC50 in test [2] was 0.2 nM.

B20: P114AR7P94-E5 (designed binder, not shown: small tags and cut ends)
chain: LPAPKNLVVSRVTEDSARLSWTAPDAAFDSFWIRYFEFLGSGEAIVLTVPGSERSYDLTGLKPGTEYAVNIMGVKGGRVSVPLSAIFTT
In the case of B20, the Kd in test [1] came out at 4.2 nM. The IC50 in test [2] amounted to 0.7 nM.

B21: P114AR7P92-G8 (designed binder, not shown: small tags and cut ends)
chain: LPAPKNLVVSRVTEDSARLSWTAPDAAFDSFVIRYFEFLGSGEAIVLTVPGSERSYDLTGLKPGTEYVVQILGVKGGYISIPLSAIFTT
For B21, the Kd in test [1] came out at 1 nM. In addition, in test [2], the IC50 is 1.6 nM.

B22: ECB109 (designed binder, not shown: small tags and cut ends)
chain: MLPAPKNLVVSEVTEDSARLSWDDPHAFYESFLIQYQESEKVGEAIVLTVPGSERSYDLTGLKPGTEYTVSIYGVHNVYKDTNIRGLPLSAIFTTAPAPAPAPAPLPAPKNLVVSRVTEDSARLSWTAPDAAFDSFWIRYFEFLGSGEAIVLTVPGSERSYDLTGLKPGTEYVVNILSVKGGSISPPLSAIFTT
For B22, the Kd in test [4] came out at 2.1 nM.

B23: ECB95 (designed binder, not shown: small tags and cut ends)
chain: MLPAPKNLVVSEVTEDSARLSWDDPWAFYESFLIQYQESEKVGEAIVLTVPGSERSYDLTGLKPGTEYTVSIYGVHNVYKDTNIRGLPLSAIFTTAPAPAPAPAPLPAPKNLVVSRVTEDSARLSWTAPDAAFDSFWIRYFEFVGSGEAIVLTVPGSERSYDLTGLKPGTEYVVNILGVKGGSISPPLSAIFTT
In the case of B23, the Kd in test [4] came out at 6.2 nM.

B24: ECB94 (designed binder, not shown: small tags and cut ends)
chain: MLPAPKNLVVSEVTEDSARLSWDDPWAFYESFLIQYQESEKVGEAIVLTVPGSERSYDLTGLKPGTEYTVSIYGVHNVYKDTNIRGLPLSAIFTTAPAPAPAPAPLPAPKNLVVSRVTEDSARLSWTAPDAAFDSFWIRYFEFLGSGEAIVLTVPGSERSYDLTGLKPGTEYVVNILGVKGGKISPPLSAIFTT
For B24, the Kd in test [4] was 4.3 nM.

B25: ECB15 (designed binder, not shown: small tags and cut ends)
chain: MLPAPKNLVVSEVTEDSARLSWDDPWAFYESFLIQYQESEKVGEAIVLTVPGSERSYDLTGLKPGTEYTVSIYGVHNVYKDTNMRGLPLSAIFTTAPAPAPAPAPLPAPKNLVVSRVTEDSARLSWTAPDAAFDSFWIRYFEFLGSGEAIVLTVPGSERSYDLTGLKPGTEYVVNIMGVKGGKISPPLSAIFTT
In the case of B25, the Kd in test [4] amounted to 2.6 nM.
